According to the supplement of paper PMC7877785:
± gives the uncertainty stated by the source.

Experiment: self-splicing fitness, log relative to wild type (ln ratio); higher = more splicing; Tetrahymena group I intron in knt gene, E. coli kanamycin selection, DiMSum; sequences stand for … in CUCUCU…GGAGGGAAAAGUUAUCAGGCAUGCACCUGGUAGCUAGUCUUUAAACCAAUAGAUUGCAUCGGUUUAAAAGGCAAGACCGUCAAAUUGCGGGAAAGGGGUCAACAGCCGUUCAGUACCAAGUCUCAGGGGAAACUUUGAGAUGGCCUUGCAAAGGGUAUGGUAAUAAGCUGACGGACAUGGUCCUAACCACGCAGCCAAGUCCUAAGUCAACAGAUCUUCUGUUGAUAUGGAUGCAGUUCACAGACUAAAUGUCGGUCGGGGAAGAUGUAUUCUUCUCAUAAGAUAUAGUCGGACCUCUCCUUAAUGGGAGCUAGCGGAUGAAGUGAUGCAACACUGGAGCCGCUGGGAACUAAUUUGUAUGCGAAAGUAUAUUGAUUAGUUUUGGAGUACUCGUGGUCG
Outline: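 Fitness was computed with DiMSum as the error-weighted combination of replicate fold changes, kanamycin versus none, each normalised to wild type. The library randomised all eight intron nucleotides of the P1ex region, with the intron placed in the knt kanamycin-resistance gene on pET-22b(+) in E. coli BL21(DE3). Six replicate transformations were grown overnight at 37°C or 30°C on LB agar with or without 25 μg/mL kanamycin, plus 100 μg/mL carbenicillin, 50 μM IPTG and 0.2% rhamnose. Pooled colonies were amplicon-sequenced on an Illumina HiSeq 2500.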

Sequence	self-splicing fitness (ln) (30 °C)	self-splicing fitness (ln) (37 °C)
GCCCAGCAAUAUUACGAUCG	-3.49 ± 0.12	-1.44 ± 0.1
GUAGAGCAAUAUUACGCGAU	-3.22 ± 0.2	0.14 ± 0.16
AUAUAGCAAUAUUACGACAU	0.126 ± 0.014	0.224 ± 0.033
CGAUAGCAAUAUUACGACUU	-1.4 ± 0.088	-1.47 ± 0.13
GGUCAGCAAUAUUACGGCCG	-1.83 ± 0.33	-1.64 ± 0.33
ACCUAGCAAUAUUACGCCAU	-3.51 ± 0.27	-1.21 ± 0.19
CUGUAGCAAUAUUACGUUAG	-2.72 ± 0.11	-1.77 ± 0.11
CGUAAGCAAUAUUACGCCAA	-3.24 ± 0.33	-1.91 ± 0.4
UUCCAGCAAUAUUACGAACA	-1.42 ± 0.21	-0.887 ± 0.17
UUCAAGCAAUAUUACGCUGU	-2.98 ± 0.17	-1.19 ± 0.14
GGCAAGCAAUAUUACGACCU	-0.895 ± 0.12	-0.997 ± 0.12
GGCGAGCAAUAUUACGCGAU	-3.7 ± 0.26	-1.62 ± 0.19
UCAUAGCAAUAUUACGCAUU	-2.86 ± 0.14	-3.04 ± 0.22
UACCAGCAAUAUUACGCAGU	-4.06 ± 0.27	-2.62 ± 0.18
AGAGAGCAAUAUUACGUAGU	-3.49 ± 0.3	-2.47 ± 0.26
CAUGAGCAAUAUUACGAGUU	–	-2.6 ± 0.24
GCAUAGCAAUAUUACGAUUU	-1.27 ± 0.092	0.225 ± 0.14
AAAAAGCAAUAUUACGCCAC	–	-2.91 ± 0.47
UUGAAGCAAUAUUACGGUUC	-3.01 ± 0.2	-2.08 ± 0.27
AAUCAGCAAUAUUACGCCAA	-1.61 ± 0.14	-0.855 ± 0.15

Sequence	self-splicing fitness (ln) (30 °C)	self-splicing fitness (ln) (37 °C)
GUCGAGCAAUAUUACGACCG	-1.69 ± 0.5	–
CGCUAGCAAUAUUACGAUCA	-0.592 ± 0.16	-0.635 ± 0.13
AAAGAGCAAUAUUACGUUCU	-2.77 ± 0.13	-1.72 ± 0.13
UCCGAGCAAUAUUACGUUUG	-3.31 ± 0.2	-3.36 ± 0.25
UAUGAGCAAUAUUACGCGGC	-4.02 ± 0.29	-1.8 ± 0.25
GCAGAGCAAUAUUACGGAUG	-2.76 ± 0.18	-1.82 ± 0.22
CAUCAGCAAUAUUACGGGGA	-2.59 ± 0.14	-1.22 ± 0.12
CCACAGCAAUAUUACGUGUC	-3.11 ± 0.15	-2.68 ± 0.16
UAGUAGCAAUAUUACGGUCU	-1.79 ± 0.17	-0.706 ± 0.13
GUAUAGCAAUAUUACGUUUC	-3.37 ± 0.25	-2.36 ± 0.33
CUUUAGCAAUAUUACGUGGA	-3.4 ± 0.4	-3.58 ± 0.31
CACGAGCAAUAUUACGAUAG	-3.14 ± 0.15	-1.6 ± 0.18
AGUAAGCAAUAUUACGUAAG	-1.35 ± 0.13	-1.96 ± 0.23
GUAUAGCAAUAUUACGGCCC	–	-0.246 ± 0.44
UGCUAGCAAUAUUACGAUUG	-1.16 ± 0.13	-1.51 ± 0.14
UACCAGCAAUAUUACGCUAC	-3.17 ± 0.2	-1.83 ± 0.18
AGGUAGCAAUAUUACGUGGA	-3.365 ± 0.027	-2.61 ± 0.037
AAGGAGCAAUAUUACGCAUG	-3.28 ± 0.22	-2.65 ± 0.22
UCUCAGCAAUAUUACGGCGC	-2.56 ± 0.22	-1.78 ± 0.31
